Patent publication US20230183328A1

Experiments:
CD32a [1] = target: CD32a (UniProt P12318); assay: CD32a binding assay; formulation F0, 5°C/2M
CD32a [2] = target: CD32a (UniProt P12318); assay: CD32a binding assay; formulation F13, 5°C/2M
CD32a [3] = target: CD32a (UniProt P12318); assay: CD32a binding assay; formulation F15, 5°C/2M
CD32a [4] = target: CD32a (UniProt P12318); assay: CD32a binding assay; formulation F17, 5°C/2M
CD32a [5] = target: CD32a (UniProt P12318); assay: CD32a binding assay; formulation F0, 25°C/1M
CD32a [6] = target: CD32a (UniProt P12318); assay: CD32a binding assay; formulation F0, 25°C/2M
CD32a [7] = target: CD32a (UniProt P12318); assay: CD32a binding assay; formulation F0, initial
CD32a [8] = target: CD32a (UniProt P12318); assay: CD32a binding assay; formulation F18, 5°C/2M
CD32a [9] = target: CD32a (UniProt P12318); assay: CD32a binding assay; formulation F0, 25°C/1M; remark: listed apart in the source
CD32a [10] = target: CD32a (UniProt P12318); assay: CD32a binding assay; formulation F15, initial
CD32a [11] = target: CD32a (UniProt P12318); assay: CD32a binding assay; formulation F17, initial
[12] = target: antigen of the Antigen binding ELISA (not named; BAN2401 is described as binding human Aβ protofibrils) (UniProt P05067); assay: antigen binding ELISA; formulation F0, 5°C/2M
CD32a [13] = target: CD32a (UniProt P12318); assay: CD32a binding assay; formulation F13, 25°C/1M
CD32a [14] = target: CD32a (UniProt P12318); assay: CD32a binding assay; formulation F13, 25°C/2M
CD32a [15] = target: CD32a (UniProt P12318); assay: CD32a binding assay; formulation F13, initial
CD32a [16] = target: CD32a (UniProt P12318); assay: CD32a binding assay; formulation F15, 25°C/1M
CD32a [17] = target: CD32a (UniProt P12318); assay: CD32a binding assay; formulation F15, 25°C/2M
CD32a [18] = target: CD32a (UniProt P12318); assay: CD32a binding assay; formulation F17, 25°C/1M
CD32a [19] = target: CD32a (UniProt P12318); assay: CD32a binding assay; formulation F17, 25°C/2M
CD32a [20] = target: CD32a (UniProt P12318); assay: CD32a binding assay; formulation F18, initial
CD32a [21] = target: CD32a (UniProt P12318); assay: CD32a binding assay; formulation F18, 25°C/1M
CD32a [22] = target: CD32a (UniProt P12318); assay: CD32a binding assay; formulation F18, 25°C/2M
CD32a [23] = target: CD32a (UniProt P12318); assay: CD32a binding assay; formulation F18, initial; remark: listed apart in the source
[24] = target: antigen of the Antigen binding ELISA (not named; BAN2401 is described as binding human Aβ protofibrils) (UniProt P05067); assay: antigen binding ELISA; formulation F0, initial
[25] = target: antigen of the Antigen binding ELISA (not named; BAN2401 is described as binding human Aβ protofibrils) (UniProt P05067); assay: antigen binding ELISA; formulation F13, 5°C/2M
[26] = target: antigen of the Antigen binding ELISA (not named; BAN2401 is described as binding human Aβ protofibrils) (UniProt P05067); assay: antigen binding ELISA; formulation F17, 5°C/2M
[27] = target: antigen of the Antigen binding ELISA (not named; BAN2401 is described as binding human Aβ protofibrils) (UniProt P05067); assay: antigen binding ELISA; formulation F0, 25°C/1M
[28] = target: antigen of the Antigen binding ELISA (not named; BAN2401 is described as binding human Aβ protofibrils) (UniProt P05067); assay: antigen binding ELISA; formulation F0, 25°C/2M
[29] = target: antigen of the Antigen binding ELISA (not named; BAN2401 is described as binding human Aβ protofibrils) (UniProt P05067); assay: antigen binding ELISA; formulation F15, 5°C/2M
[30] = target: antigen of the Antigen binding ELISA (not named; BAN2401 is described as binding human Aβ protofibrils) (UniProt P05067); assay: antigen binding ELISA; formulation F18, 5°C/2M
[31] = target: antigen of the Antigen binding ELISA (not named; BAN2401 is described as binding human Aβ protofibrils) (UniProt P05067); assay: antigen binding ELISA; formulation F17, initial
[32] = target: antigen of the Antigen binding ELISA (not named; BAN2401 is described as binding human Aβ protofibrils) (UniProt P05067); assay: antigen binding ELISA; formulation F13, 25°C/1M
[33] = target: antigen of the Antigen binding ELISA (not named; BAN2401 is described as binding human Aβ protofibrils) (UniProt P05067); assay: antigen binding ELISA; formulation F13, 25°C/2M
[34] = target: antigen of the Antigen binding ELISA (not named; BAN2401 is described as binding human Aβ protofibrils) (UniProt P05067); assay: antigen binding ELISA; formulation F13, initial
[35] = target: antigen of the Antigen binding ELISA (not named; BAN2401 is described as binding human Aβ protofibrils) (UniProt P05067); assay: antigen binding ELISA; formulation F15, 25°C/1M
[36] = target: antigen of the Antigen binding ELISA (not named; BAN2401 is described as binding human Aβ protofibrils) (UniProt P05067); assay: antigen binding ELISA; formulation F15, 25°C/2M
[37] = target: antigen of the Antigen binding ELISA (not named; BAN2401 is described as binding human Aβ protofibrils) (UniProt P05067); assay: antigen binding ELISA; formulation F15, initial
[38] = target: antigen of the Antigen binding ELISA (not named; BAN2401 is described as binding human Aβ protofibrils) (UniProt P05067); assay: antigen binding ELISA; formulation F17, 25°C/1M
[39] = target: antigen of the Antigen binding ELISA (not named; BAN2401 is described as binding human Aβ protofibrils) (UniProt P05067); assay: antigen binding ELISA; formulation F17, 25°C/2M
[40] = target: antigen of the Antigen binding ELISA (not named; BAN2401 is described as binding human Aβ protofibrils) (UniProt P05067); assay: antigen binding ELISA; formulation F18, initial
[41] = target: antigen of the Antigen binding ELISA (not named; BAN2401 is described as binding human Aβ protofibrils) (UniProt P05067); assay: antigen binding ELISA; formulation F18, 25°C/1M
[42] = target: antigen of the Antigen binding ELISA (not named; BAN2401 is described as binding human Aβ protofibrils) (UniProt P05067); assay: antigen binding ELISA; formulation F18, 25°C/2M
CD32a [43] = target: CD32a (UniProt P12318); assay: CD32a binding assay; formulation F15, 25°C dark/7 D
CD32a [44] = target: CD32a (UniProt P12318); assay: CD32a binding assay; formulation F18, 25°C dark/7 D
[45] = target: antigen of the Antigen binding ELISA (not named; BAN2401 is described as binding human Aβ protofibrils) (UniProt P05067); assay: antigen binding ELISA; formulation F15, 25°C dark/7 D
[46] = target: antigen of the Antigen binding ELISA (not named; BAN2401 is described as binding human Aβ protofibrils) (UniProt P05067); assay: antigen binding ELISA; formulation F18, 25°C dark/7 D
CD32a [47] = target: CD32a (UniProt P12318); assay: CD32a binding assay; formulation F15, 25°C 1000 lx/7 D
CD32a [48] = target: CD32a (UniProt P12318); assay: CD32a binding assay; formulation F18, 25°C 1000 lx/7 D
[49] = target: antigen of the Antigen binding ELISA (not named; BAN2401 is described as binding human Aβ protofibrils) (UniProt P05067); assay: antigen binding ELISA; formulation F15, 25°C 1000 lx/7 D
[50] = target: antigen of the Antigen binding ELISA (not named; BAN2401 is described as binding human Aβ protofibrils) (UniProt P05067); assay: antigen binding ELISA; formulation F18, 25°C 1000 lx/7 D
CD32a [51] = target: CD32a (UniProt P12318); assay: CD32a binding assay; formulation F15, freeze-thaw 3 cycles
CD32a [52] = target: CD32a (UniProt P12318); assay: CD32a binding assay; formulation F18, freeze-thaw 3 cycles
[53] = target: antigen of the Antigen binding ELISA (not named; BAN2401 is described as binding human Aβ protofibrils) (UniProt P05067); assay: antigen binding ELISA; formulation F15, freeze-thaw 3 cycles
[54] = target: antigen of the Antigen binding ELISA (not named; BAN2401 is described as binding human Aβ protofibrils) (UniProt P05067); assay: antigen binding ELISA; formulation F18, freeze-thaw 3 cycles

CD32a, sequence (P12318 36-218): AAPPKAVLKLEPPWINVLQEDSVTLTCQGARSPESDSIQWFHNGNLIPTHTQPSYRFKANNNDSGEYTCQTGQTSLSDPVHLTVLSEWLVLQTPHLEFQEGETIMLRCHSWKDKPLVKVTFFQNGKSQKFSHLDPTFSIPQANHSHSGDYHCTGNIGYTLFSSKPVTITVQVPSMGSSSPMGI

BAN2401 (antibody) gave a FcR (Binding assay (CD32a)) (CD32a [1]) of 93.8%, a FcR (Binding assay (CD32a)) (CD32a [2]) of 100% and a FcR (Binding assay (CD32a)) (CD32a [3]) of 99%. For the same substance, the FcR (Binding assay (CD32a)) (CD32a [4]) was 103%, the FcR (Binding assay (CD32a)) (CD32a [5]) was 95.3% and the FcR (Binding assay (CD32a)) (CD32a [6]) was 93.5%. The FcR (Binding assay (CD32a)) (CD32a [7]) was 91.7%, the FcR (Binding assay (CD32a)) (CD32a [8]) was 94.7% and the FcR (Binding assay (CD32a)) (CD32a [9]) was 95.5%. For the same substance, the FcR (Binding assay (CD32a)) (CD32a [10]) was 109%, the FcR (Binding assay (CD32a)) (CD32a [11]) was 117% and the ELISA (Antigen binding ELISA) [12] was 103%. The FcR (Binding assay (CD32a)) (CD32a [13]) was 99.4%, the FcR (Binding assay (CD32a)) (CD32a [14]) was 102% and the FcR (Binding assay (CD32a)) (CD32a [15]) was 101%. For the same substance, the FcR (Binding assay (CD32a)) (CD32a [16]) was 98.3%, the FcR (Binding assay (CD32a)) (CD32a [17]) was 102% and the FcR (Binding assay (CD32a)) (CD32a [18]) was 104%. For the same substance, the FcR (Binding assay (CD32a)) (CD32a [19]) was 105%, the FcR (Binding assay (CD32a)) (CD32a [20]) was 92.4% and the FcR (Binding assay (CD32a)) (CD32a [21]) was 91.9%. For the same substance, the FcR (Binding assay (CD32a)) (CD32a [22]) was 92.9%, the FcR (Binding assay (CD32a)) (CD32a [23]) was 106% and the ELISA (Antigen binding ELISA) [24] was 101%. For the same substance, the ELISA (Antigen binding ELISA) [25] was 104%, the ELISA (Antigen binding ELISA) [26] was 126% and the ELISA (Antigen binding ELISA) [27] was 103%. It also gave an ELISA (Antigen binding ELISA) [28] of 91.8%, an ELISA (Antigen binding ELISA) [29] of 123% and an ELISA (Antigen binding ELISA) [30] of 118%. The ELISA (Antigen binding ELISA) [31] was 107%, the ELISA (Antigen binding ELISA) [32] was 104% and the ELISA (Antigen binding ELISA) [33] was 107%. It also gave an ELISA (Antigen binding ELISA) [34] of 109%, an ELISA (Antigen binding ELISA) [35] of 104% and an ELISA (Antigen binding ELISA) [36] of 96.9%. It also gave an ELISA (Antigen binding ELISA) [37] of 102%, an ELISA (Antigen binding ELISA) [38] of 107% and an ELISA (Antigen binding ELISA) [39] of 102%. It also gave an ELISA (Antigen binding ELISA) [40] of 108%, an ELISA (Antigen binding ELISA) [41] of 97% and an ELISA (Antigen binding ELISA) [42] of 97.8%. It also gave a FcR (Binding assay (CD32a)) (CD32a [43]) of 104%, a FcR (Binding assay (CD32a)) (CD32a [44]) of 105% and an ELISA (Antigen binding ELISA) [45] of 107%. The ELISA (Antigen binding ELISA) [46] was 105%, the FcR (Binding assay (CD32a)) (CD32a [47]) was 118% and the FcR (Binding assay (CD32a)) (CD32a [48]) was 109%. For the same substance, the ELISA (Antigen binding ELISA) [49] was 101%, the ELISA (Antigen binding ELISA) [50] was 109% and the FcR (Binding assay (CD32a)) (CD32a [51]) was 108%. It also gave a FcR (Binding assay (CD32a)) (CD32a [52]) of 106%, an ELISA (Antigen binding ELISA) [53] of 108% and an ELISA (Antigen binding ELISA) [54] of 104%.
